The source of these data is US20250179196A1 (Janssen / Centocor, published 2025).

Assay [1] has as its target T1, Recombinant human IL-23 receptor (IL-23R) extracellular domain (ECD) protein (human, UniProt Q5VWK5 24-355).
T1 construct: also called human IL-23R ECD; hu IL-23R ECD
T1 sequence: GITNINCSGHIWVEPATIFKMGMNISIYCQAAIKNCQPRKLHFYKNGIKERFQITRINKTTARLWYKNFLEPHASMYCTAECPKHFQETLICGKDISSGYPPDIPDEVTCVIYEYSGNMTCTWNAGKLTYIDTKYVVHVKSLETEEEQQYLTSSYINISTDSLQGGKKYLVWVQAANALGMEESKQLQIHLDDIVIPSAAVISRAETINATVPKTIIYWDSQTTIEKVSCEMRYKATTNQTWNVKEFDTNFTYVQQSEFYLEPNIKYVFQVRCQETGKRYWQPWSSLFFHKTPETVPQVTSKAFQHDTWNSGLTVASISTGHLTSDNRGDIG
Put plainly: SPR Biacore 8K, supernatant, analysis 1. The method in brief:
(§1)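 Kinetics fitted to a 1:1 Langmuir model gave on-rate, off-rate and KD. Human or rat IL-23R ECD flowed over captured mAbs (~150 RU) at 0.8–500 nM, 5-fold dilutions: 3 min binding at 50 μL/min, then 30 min buffer, 25 °C, HBS-P+ plus 100 μg/ml BSA.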
(SPR reads the build-up and loss of mass on a sensor chip optically.)

For assay [2], the target named is T2, rat IL-23R extracellular domain (ECD) protein (rat).
T2 construct: also called rat IL-23R ECD; F1LX96 amino acids 24-354
T2 chain: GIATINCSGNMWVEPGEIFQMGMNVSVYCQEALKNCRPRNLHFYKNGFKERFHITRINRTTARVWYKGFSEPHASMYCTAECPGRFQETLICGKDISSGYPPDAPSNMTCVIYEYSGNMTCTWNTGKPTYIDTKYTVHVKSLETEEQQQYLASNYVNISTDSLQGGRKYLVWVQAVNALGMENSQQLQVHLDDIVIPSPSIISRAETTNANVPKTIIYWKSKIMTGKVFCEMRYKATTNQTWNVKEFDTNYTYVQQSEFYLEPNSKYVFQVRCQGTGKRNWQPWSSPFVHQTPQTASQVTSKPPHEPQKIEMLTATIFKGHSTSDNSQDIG
The assay is described as follows: SPR Biacore 8K, supernatant. The method, boiled down:
as §1

Assay [3] concerns the target T1, Recombinant human IL-23 receptor …. The assay is described as follows: SPR Biacore 8K, supernatant, analysis 2. The method in brief:
as §1

B1: I23RB188 (antibody, mouse IgG2a, kappa, V domains shown)
VH: QIQLVQSGPELKKPGETVKISCKASGYTFTNYGMNWVKQAPGKGLKWMGWINTYTGAPTYADDFKGRFAFSLETSASTAYLQINNFKNEDTATYFCARGNGYPYYYGINYWGQGTSVTVSS
VL: DVQMIQSPSSLSASLGERVSLTCRASQEISGNLSWLQQKPDGTIKRLIYAASTLDSGVPKRFSGSRSGSDYSLTISSLESEDFADYYCLQYASYPWTFGAGTRLEIKR
notes: mouse immunization; mouse IgG2a/kappa
B1: in assay [1], the Kd amounted to 13.3 nM, the koff was 0.0013 s⁻¹ and the kon was 98200 M⁻¹ s⁻¹. Besides, the binding result in assay [2] is recorded as “no binding (tested: 500 nM)”. In addition, in assay [3], the Kd is 18.9 nM, the off-rate (koff) turned out to be 0.00151 s⁻¹ and the kon was found to be 79800 M⁻¹ s⁻¹.

B2: I23RB162 (antibody, mouse IgG2a, kappa, V domains shown)
VH: EFQLQQSGPELVKPGASVKMSCKASGYTFTNYVMHWVKQKPGQGLEWIGYINPYNDGTKYNEKFKGKATLTSDKSSSTAYMELSSLTSEDSAVYYCARSRTGTRWYFDVWGAGTTVTVSS
VL: DIVMTQSQKFMSTSVGDRVSVTCKASQNVGTNVAWYQQKPGQSPKALIYSASYRYSGVPDRFTGSGSGTDFTLTISNVQSEDLAEYFCQQYNSYPFTFGSGTKLEIKR
notes: as for B1
Regarding B2, in assay [1], the dissociation constant (Kd) was found to be 44.6 nM, the koff was found to be 0.0237 s⁻¹ and the kon came to 531000 M⁻¹ s⁻¹. In assay [2], the binding result is “no binding (tested: 500 nM)”. Besides, in assay [3], the equilibrium dissociation constant (Kd) worked out at 62.2 nM, the koff turned out to be 0.0216 s⁻¹ and the association rate constant (kon) is 347000 M⁻¹ s⁻¹.

B3: I23RB27 (antibody, mouse IgG2a, kappa, V domains shown)
VH: QVQLKESGPDLVQPSQTLSLTCTVSGFSLTSYGVHWVRQPPGKGLEWVGTLGWDDKKSYNSALKSRLSISRDTSKSQVFLKLSSLQTEDTAMYYCTKEDVSYAMDFWGQGTTLTVSS
VL: DIQMTQSPTSLAVSLGQRATISCRASESVEYYGTSLMHWYQQKPGQPPKLLIYAASNVESGVPARFSGSGSGTDFSLNIHPVEEEDIAMYFCQQGKKVPWTFGAGTKLEMKR
notes: as for B1
B3: in assay [1], the dissociation constant Kd was 11.4 nM, the off-rate (koff) came out at 0.00372 s⁻¹ and the on-rate (kon) was 325000 M⁻¹ s⁻¹. In assay [2], the binding result is given as “no binding (tested: 500 nM)”. In addition, in assay [3], the equilibrium dissociation constant (Kd) came out at 18.7 nM, the dissociation rate constant (koff) amounted to 0.00416 s⁻¹ and the on-rate constant (kon) was 223000 M⁻¹ s⁻¹.

B4: I23RB30 (antibody, mouse IgG2a, kappa, V domains shown)
VH: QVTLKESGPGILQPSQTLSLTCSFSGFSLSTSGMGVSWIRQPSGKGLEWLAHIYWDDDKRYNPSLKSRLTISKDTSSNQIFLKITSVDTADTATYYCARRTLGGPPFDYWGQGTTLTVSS
VL: DIVLTQSQRFMSTSVGDRVSITCKASQNIRTAVAWYQQKPGQSPKALIYLPSNRHTGVPDRFTGSGSGTDFTLTISNVQSEDLADYFCLQHWNYPLTFGAGTKLELKR
notes: as for B1
As to B4, in assay [1], the Kd is 46.2 nM, the off-rate (koff) worked out at 0.0101 s⁻¹ and the association rate constant (kon) is 220000 M⁻¹ s⁻¹. Moreover, in assay [2], the dissociation constant (Kd) was found to be 306 nM, the koff turned out to be 0.00909 s⁻¹ and the association rate constant (kon) worked out at 29800 M⁻¹ s⁻¹. In addition, in assay [3], the Kd amounted to 35.9 nM, the off-rate constant (koff) turned out to be 0.00763 s⁻¹ and the on-rate constant (kon) worked out at 212000 M⁻¹ s⁻¹.

B5: I23RB39 (antibody, mouse IgG2a, kappa, V domains shown)
VH: EVQLQQSGPELVKPGAPVKISCKASGYTFTNYYIHWVKQRPGQGLEWIGYIYPGNGGTAYNQKFKDKATLTADNPSSTAYMQLSSLTSEDSAVYFCARSRGGSRNYFDYWGQGTTLTVSS
VL: DIQMTQSHKFMSTSVGDRVSITCKASQDVSTAVAWYQQKPGQSPKLLIYSAFYRYTGVPDRFTGSGSGTDFTFTISSVQAEDLAVYYCQQHYSSPRTFGAGTKLELKR
notes: as for B1
Regarding B5, in assay [1], the Kd came to 32 nM, the off-rate constant (koff) was 0.00739 s⁻¹ and the kon came to 231000 M⁻¹ s⁻¹. Besides, in assay [2], the binding result is recorded as “no binding (tested: 500 nM)”. Also, in assay [3], the Kd came to 14.9 nM, the off-rate (koff) worked out at 0.00716 s⁻¹ and the kon worked out at 482000 M⁻¹ s⁻¹.

B6: I23RB166 (antibody, mouse IgG2a, kappa, V domains shown)
VH: DVQLQESGPGLVKPSQTVSLTCTVTGYSITNGNHWWNWIRQVSGSKLEWIGYIRSSGSTDSNPSLKSRISITRDTSKNQLFLQLNSVTAEDIATYYCARERLRLRWSYFDYWGQGTTLTVSS
VL: DIVMTQSHKFMSTSVGARVSITCKASQDVSTAVAWYQQKPGQSPKLLIYSASYRYTGVPDRFTGSGSGTDFTFTISSVQAEDLAVYYCQQHYSTPRTFGGGTKLEIKR
notes: as for B1
With B6, in assay [1], the Kd stood at 43.1 nM, the koff worked out at 0.0193 s⁻¹ and the kon stood at 447000 M⁻¹ s⁻¹. Besides, the binding result in assay [2] was “no binding (tested: 500 nM)”. Further, in assay [3], the Kd is 44.1 nM, the koff worked out at 0.00942 s⁻¹ and the on-rate constant (kon) was 214000 M⁻¹ s⁻¹.

B7: I23RB168 (antibody, mouse IgG2a, kappa, V domains shown)
VH: QIQLVQSGPELVKPGASVKMSCKTSGYTFTDYYINWVKQRPGQGLEWIGWIYPAINNTNYNEKFKGKATLTVDTSSRTAYMQLNSLTSEDSAVYFCAISRKPYFDYWGQGTTLTVSS
VL: DIQMTQSSSSFSVSLGDRVTITCKASEDLYNRLAWYQQKPGNAPRLLISGATSLGTGVLSRFSGSGSGKDYTLSITSLQTEDVATYYCQQYWSIPWTFGAGTKLELKR
notes: as for B1
As to B7, in assay [1], the Kd amounted to 0.279 nM, the off-rate constant (koff) turned out to be 0.000118 s⁻¹ and the kon was 424000 M⁻¹ s⁻¹. Moreover, the binding result in assay [2] is “no binding (tested: 500 nM)”. Further, in assay [3], the Kd is 0.422 nM, the koff was determined as 0.000155 s⁻¹ and the kon was 368000 M⁻¹ s⁻¹.

B8: I23RB182 (antibody, mouse IgG2a, kappa, V domains shown)
VH: EVQLQQSGPGLVKPSQSLSLTCSVTGYSITSGYFWNWLRQFPGSKLEWMGFIDNDGSNDYNPSLKNRISITRDTSKNQFFLRLNSVTTEDTATYYCARGRLGFFDSWGPGTTLTVSS
VL: DIVMTQSPAIMSASLGEKVTMSCRASSSVNYMYWYQQKSDASPKLWIYYTSNLAPGVPARFSGSGSGNSYSLTISSMEGEDAATYYCQQFTNSPWTFGAGTKLELKR
notes: as for B1
On to B8, for which, in assay [1], the equilibrium dissociation constant (Kd) is 49.8 nM, the off-rate constant (koff) stood at 0.00194 s⁻¹ and the kon amounted to 38900 M⁻¹ s⁻¹. Moreover, the binding result in assay [2] was “no binding (tested: 500 nM)”. Besides, in assay [3], the Kd came out at 43.7 nM, the koff came to 0.00394 s⁻¹ and the kon stood at 90200 M⁻¹ s⁻¹.

B9: I23RB36 (antibody, mouse IgG2a, kappa, V domains shown)
VH: QIQLVQSGAELVKPGASVKLSCTTSGFNIKDTYIHWMKQRPEQGLEWIGRIDPANGNTIYASKFQGKATLTTDTSSNTAYMLLSSLTSGDTAVYYCTRGTSWFAYWGQGTTVTVSS
VL: DIVMTQSPKSMSMSVGERVTLSCKASENVGTSVSWFQQKPEQSPKLLIYGASNRYTGVPDRFTGSGSATDFTLTISSVQAEDLADYHCGQSYSYPRTFGGGTKLEIKR
notes: as for B1
B9: in assay [1], the Kd was 13.7 nM, the koff worked out at 0.00118 s⁻¹ and the on-rate (kon) is 86400 M⁻¹ s⁻¹. Moreover, the binding result in assay [2] is reported as “no binding (tested: 500 nM)”. For the same molecule, in assay [3], the Kd came to 2.18 nM, the off-rate (koff) worked out at 0.00129 s⁻¹ and the kon came to 592000 M⁻¹ s⁻¹.

B10: I23RB169 (antibody, mouse IgG2a, kappa, V domains shown)
VH: QIQLVQSGPELKKPGETVKISCKASGYTFTTVGMQWVQKMPGKGFKWIGWINTHSGEPKYTDDFKGRFAFSLETSASTAYLQISNLKSEDTATYFCARSSALTGAFAYWGQGTLVTVSS
VL: DIKMTQSPASLAVSLGQRATISCRASKSVSTSDYSYMHWYQQKPGQPPKLLIYLASNLESGVPARFSGSGSGTDFTLNIHPVEEEDAATYYCQHSRELPRTFGAGTKLELKR
notes: as for B1
For B10, in assay [1], the dissociation constant Kd amounted to 91.3 nM, the dissociation rate constant (koff) stood at 0.0116 s⁻¹ and the kon worked out at 128000 M⁻¹ s⁻¹. Further, the binding result in assay [2] is recorded as “no binding (tested: 500 nM)”. In addition, in assay [3], the Kd stood at 34.8 nM, the dissociation rate constant (koff) was 0.00427 s⁻¹ and the kon amounted to 123000 M⁻¹ s⁻¹.

One may read the Kd as the equilibrium constant for the complex coming apart. The koff is a measure of how fast the partners let go of each other. In general, kon refers to the second-order rate constant of association.
